[ ]: non-standard residue; d: D form. Nle = CCCC[C@H](N)C(=O)O; Orn = NCCC[C@H](N)C(=O)O; Dab = NCC[C@H](N)C(=O)O; Sar = CNCC(=O)O
B1: Ac-Nle-Ala-His-D-Phe-Arg-Ala-D-Trp-NH2 (peptide)
peptide: Ac-[Nle]AH[dF]RA[dW]-NH2
SMILES: CCCC[C@H](NC(C)=O)C(=O)N[C@@H](C)C(=O)N[C@@H](Cc1c[nH]cn1)C(=O)N[C@H](Cc1ccccc1)C(=O)N[C@@H](CCCNC(=N)N)C(=O)N[C@@H](C)C(=O)N[C@H](Cc1c[nH]c2ccccc12)C(N)=O
B2: Ac-Nle-Ala-His-D-Phe-Arg-D-Pro-Trp-NH2 (peptide)
peptide: Ac-[Nle]AH[dF]R[dP]W-NH2
SMILES: CCCC[C@H](NC(C)=O)C(=O)N[C@@H](C)C(=O)N[C@@H](Cc1c[nH]cn1)C(=O)N[C@H](Cc1ccccc1)C(=O)N[C@@H](CCCNC(=N)N)C(=O)N1CCC[C@@H]1C(=O)N[C@@H](Cc1c[nH]c2ccccc12)C(N)=O
B3: Ac-Nle-Ala-His-D-Phe-Arg-Sar-Trp-NH2 (peptide)
peptide: Ac-[Nle]AH[dF]R[Sar]W-NH2
SMILES: CCCC[C@H](NC(C)=O)C(=O)N[C@@H](C)C(=O)N[C@@H](Cc1c[nH]cn1)C(=O)N[C@H](Cc1ccccc1)C(=O)N[C@@H](CCCNC(=N)N)C(=O)N(C)CC(=O)N[C@@H](Cc1c[nH]c2ccccc12)C(N)=O
B4: Ac-Nle-Ala-His-D-Phe-Arg-Pro-D-Trp-NH2 (peptide)
peptide: Ac-[Nle]AH[dF]RP[dW]-NH2
SMILES: CCCC[C@H](NC(C)=O)C(=O)N[C@@H](C)C(=O)N[C@@H](Cc1c[nH]cn1)C(=O)N[C@H](Cc1ccccc1)C(=O)N[C@@H](CCCNC(=N)N)C(=O)N1CCC[C@H]1C(=O)N[C@H](Cc1c[nH]c2ccccc12)C(N)=O
B5: Ac-Nle-Ala-Orn-D-Phe-Arg-Ala-Trp-NH2 (peptide)
peptide: Ac-[Nle]A[Orn][dF]RAW-NH2
SMILES: CCCC[C@H](NC(C)=O)C(=O)N[C@@H](C)C(=O)N[C@@H](CCCN)C(=O)N[C@H](Cc1ccccc1)C(=O)N[C@@H](CCCNC(=N)N)C(=O)N[C@@H](C)C(=O)N[C@@H](Cc1c[nH]c2ccccc12)C(N)=O
B6: Ac-Nle-Ala-Dab-D-Phe-Arg-Ala-Trp-NH2 (peptide)
peptide: Ac-[Nle]A[Dab][dF]RAW-NH2
SMILES: CCCC[C@H](NC(C)=O)C(=O)N[C@@H](C)C(=O)N[C@@H](CCN)C(=O)N[C@H](Cc1ccccc1)C(=O)N[C@@H](CCCNC(=N)N)C(=O)N[C@@H](C)C(=O)N[C@@H](Cc1c[nH]c2ccccc12)C(N)=O

These binders were tested against recombinant human melanocortin-1 receptor (hMCR-1a) in membrane homogenates of HEK-293 cells (human) (UniProt Q01726) (assay: competitive inhibition of [I125]-NDP-alpha-MSH, hMCR-1 HEK-293 membranes).
Sequence of recombinant human melanocortin-1 receptor (hMCR-1a) in membrane homogenates of HEK-293 cells (human) (Q01726 whole entry): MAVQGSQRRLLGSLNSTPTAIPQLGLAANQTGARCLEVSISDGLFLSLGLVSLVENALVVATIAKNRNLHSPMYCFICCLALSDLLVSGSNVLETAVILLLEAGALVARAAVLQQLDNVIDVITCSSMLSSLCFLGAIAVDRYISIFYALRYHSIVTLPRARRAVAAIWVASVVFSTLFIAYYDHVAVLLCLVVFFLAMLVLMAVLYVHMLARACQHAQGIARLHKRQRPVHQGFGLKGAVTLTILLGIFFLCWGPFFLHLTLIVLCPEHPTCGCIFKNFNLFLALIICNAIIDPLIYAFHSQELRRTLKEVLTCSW

Question: For B1, which Ki is on record?
Answer: 7 nM

Question: With B2 as the binder, how does the Ki read?
Answer: 14 nM

Question: B3 was tested. Which Ki did it give?
Answer: 2 nM

Question: For B4, which Ki is on record?
Answer: 2 nM

Question: With B5 as the binder, how does the Ki read?
Answer: 0.3 nM

Question: With B6 as the binder, how does the Ki read?
Answer: 2 nM

The binders below were run against recombinant human melanocortin-4 receptor (hMCR-4) in membrane homogenates of HEK-293 cells (human) (UniProt P32245) (assay: competitive inhibition of [I125]-NDP-alpha-MSH, hMCR-4 HEK-293 membranes).
Sequence of recombinant human melanocortin-4 receptor (hMCR-4) in membrane homogenates of HEK-293 cells (human) (P32245 whole entry): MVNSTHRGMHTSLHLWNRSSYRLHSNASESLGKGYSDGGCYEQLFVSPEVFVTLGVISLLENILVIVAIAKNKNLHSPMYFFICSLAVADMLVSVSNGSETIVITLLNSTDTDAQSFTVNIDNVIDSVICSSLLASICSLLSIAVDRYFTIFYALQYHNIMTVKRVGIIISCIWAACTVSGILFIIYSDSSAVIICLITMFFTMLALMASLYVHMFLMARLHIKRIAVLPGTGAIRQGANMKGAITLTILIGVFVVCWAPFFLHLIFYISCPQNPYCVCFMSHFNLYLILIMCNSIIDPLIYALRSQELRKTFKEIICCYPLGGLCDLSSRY

Question: For B1, which Ki is on record?
Answer: 215 nM

Question: B2 was tested. Which Ki did it give?
Answer: 6200 nM

Question: With B3 as the binder, how does the Ki read?
Answer: 870 nM

Question: B4 was tested. Which Ki did it give?
Answer: 650 nM

Question: How did the Ki turn out when B5 was run?
Answer: 7580 nM

Question: How did the Ki turn out when B6 was run?
Answer: 7850 nM

Source: patent publication US20150119341A1
